Three molecules from paper PMC4552487 (EMBO Reports, 2015) can be followed below.

Conditions in all cases: both partners purified
The target of assay [1] is Ser65-phosphorylated ubiquitin (ubiquitin^Phospho-Ser65) (bovine, UniProt P0CG53 1-76, phosphoserine at 65). The assay is described as follows: ITC; ubiquitin^PhosSer65 in the syringe titrated into 50 μM wild-type or mutant Parkin in the cell; 50 mM HEPES pH 8.0, 150 mM NaCl, 500 μM TCEP; 20°C; single binding site model.
In assay [2] the target is Ser65-phosphorylated Dac-ubiquitin (Dac-ubiquitin^PhosSer65) (UniProt P0CG47 1-76, phosphoserine at 65 of ubiquitin). The assay is described as follows: SEC; Superdex 200 Increase 10/300 GL; 50 mM Tris pH 7.5, 150 mM NaCl; 100 μg of each protein, mixtures incubated for 30 min before chromatography. For orientation: Size exclusion chromatography separates by hydrodynamic size, large species first.

In assay [3] the target is T1, Parkin (80-465)-Biotin, wild type (UniProt O60260 80-465, biotin (position not given)).
T1 sequence (looked up): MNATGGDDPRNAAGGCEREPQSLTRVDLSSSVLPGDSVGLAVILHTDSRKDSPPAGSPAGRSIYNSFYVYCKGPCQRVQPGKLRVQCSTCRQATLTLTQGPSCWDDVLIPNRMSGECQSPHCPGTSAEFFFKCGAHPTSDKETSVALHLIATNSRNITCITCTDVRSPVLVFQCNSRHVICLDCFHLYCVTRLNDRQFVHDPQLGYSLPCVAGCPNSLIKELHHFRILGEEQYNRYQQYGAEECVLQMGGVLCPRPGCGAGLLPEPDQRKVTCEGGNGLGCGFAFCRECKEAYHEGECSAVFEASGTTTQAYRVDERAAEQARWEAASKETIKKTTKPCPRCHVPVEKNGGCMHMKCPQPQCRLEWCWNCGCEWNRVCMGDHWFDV
Kind of assay: AlphaScreen or HTRF; GST-Ubl (1-76) on glutathione acceptor beads and Parkin (80-465)-biotin (WT or H302A) on streptavidin donor beads, 10 nM each; inhibitor proteins in three-fold 10-point dilutions; PBS + 0.1% BSA + 0.1% Triton X-100; RT. (In general: In Alpha technology, singlet oxygen from a donor bead excites a nearby acceptor bead.)

Numbering of substitutions follows the chain as printed. Numbers in names are those of the source.

B1: full-length Parkin Lys151Ala (K151A) mutant, untagged (enzyme, UniProt O60260 1-465, looked up)
chain: MIVFVRFNSSHGFPVEVDSDTSIFQLKEVVAKRQGVPADQLRVIFAGKELRNDWTVQNCDLDQQSIVHIVQRPWRKGQEMNATGGDDPRNAAGGCEREPQSLTRVDLSSSVLPGDSVGLAVILHTDSRKDSPPAGSPAGRSIYNSFYVYCAGPCQRVQPGKLRVQCSTCRQATLTLTQGPSCWDDVLIPNRMSGECQSPHCPGTSAEFFFKCGAHPTSDKETSVALHLIATNSRNITCITCTDVRSPVLVFQCNSRHVICLDCFHLYCVTRLNDRQFVHDPQLGYSLPCVAGCPNSLIKELHHFRILGEEQYNRYQQYGAEECVLQMGGVLCPRPGCGAGLLPEPDQRKVTCEGGNGLGCGFAFCRECKEAYHEGECSAVFEASGTTTQAYRVDERAAEQARWEAASKETIKKTTKPCPRCHVPVEKNGGCMHMKCPQPQCRLEWCWNCGCEWNRVCMGDHWFDV
The term Kd denotes the free concentration of one partner at which half of the binding sites on the other are occupied at equilibrium, for simple one-to-one binding. The molecule B1 yielded a dissociation constant (Kd) in assay [1] of around 7 µM.

B2: Parkin 1-465 S65A (enzyme, UniProt O60260 1-465, looked up)
chain: B1 chain with S65A, A151K
On to B2, for which, in assay [2], the binding result was “binds”.

B3: GST-Ubl (Parkin Ubl domain, residues 1-76) (domain or fragment, UniProt O60260 1-76, looked up)
chain: MIVFVRFNSSHGFPVEVDSDTSIFQLKEVVAKRQGVPADQLRVIFAGKELRNDWTVQNCDLDQQSIVHIVQRPWRK
For the molecule B3, in assay [3], the binding result is “binds”.
